Data reported in publication doi:10.1101/756791 (bioRxiv, 2019).

Columns and labels:
[1] = biological target: T1, Rpn10/S5a (UIM motifs: 196-306aa) (UniProt P55036 196-306); assay: ITC
T1 sequence (looked up): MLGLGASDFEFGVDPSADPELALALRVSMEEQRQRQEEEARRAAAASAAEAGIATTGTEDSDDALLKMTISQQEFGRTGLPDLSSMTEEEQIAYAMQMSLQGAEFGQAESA

[2] = biological target: T1, Rpn10/S5a (UIM motifs: 196-306aa); assay: NMR titration
[3] = biological target: hRpn13 (Pru domain: 1-150aa) (human, UniProt Q16186 1-150); assay: other fluorescence titration
[4] = biological target: T1, Rpn10/S5a (UIM motifs: 196-306aa); assay: NMR titration; remark: listed apart in the source

Sequence of hRpn13 (Pru domain: 1-150aa) (Q16186 1-150): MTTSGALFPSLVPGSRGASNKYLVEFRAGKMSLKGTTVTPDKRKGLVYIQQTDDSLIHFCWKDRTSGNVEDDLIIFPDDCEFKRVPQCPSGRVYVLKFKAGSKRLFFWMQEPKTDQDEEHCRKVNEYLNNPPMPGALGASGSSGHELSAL

B1: viral Ubiquitin from Autographa Californica Multiple Nucleo-Polyhedrosis Virus (AcMNPV) (natural protein)
chain: not shown
With B1 the Kd [1] was 85 µM, the dH [1] was -4.5 ± 0.3 kcal/mol and the “stoichiometry N” value [1] was 2 ± 0.1. For the same binder, the Kd [2] was 78 µM, the Kd [3] was 0.04 µM and the “KD of the UIM1 site” value [4] was 331 µM. The “KD of the UIM2 site” value [4] was 21 µM.
